Assay results published in patent US20220064329A1 (Novo Nordisk, published 2022).

How the values were obtained:
Assay in all cases: SPR, Biacore T200, 25 C; FVII(a) variant captured on anti-Gla Ab 4F6, mAb0842(OA) injected
[1] = target: T1, FVII(a) variant R392A (human, UniProt P08709 61-466)
T1 construct: hFVII alanine variant in cell culture supernatant
T1 sequence: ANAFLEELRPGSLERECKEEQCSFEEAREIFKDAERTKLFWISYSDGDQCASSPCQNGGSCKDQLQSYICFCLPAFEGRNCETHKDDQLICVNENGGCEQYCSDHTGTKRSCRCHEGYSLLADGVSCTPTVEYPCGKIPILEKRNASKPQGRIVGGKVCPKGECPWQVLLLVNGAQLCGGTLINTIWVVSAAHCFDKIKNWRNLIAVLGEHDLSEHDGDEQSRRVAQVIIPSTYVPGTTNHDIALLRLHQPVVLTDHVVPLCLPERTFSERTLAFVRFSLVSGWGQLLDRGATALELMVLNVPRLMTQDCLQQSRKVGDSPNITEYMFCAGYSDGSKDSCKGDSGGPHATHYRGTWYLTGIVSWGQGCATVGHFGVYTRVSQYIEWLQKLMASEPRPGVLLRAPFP

[2] = target: T2, FVII(a) variant E116A (human, UniProt P08709 61-466)
T2 construct: hFVII alanine variant in cell culture supernatant
T2 sequence: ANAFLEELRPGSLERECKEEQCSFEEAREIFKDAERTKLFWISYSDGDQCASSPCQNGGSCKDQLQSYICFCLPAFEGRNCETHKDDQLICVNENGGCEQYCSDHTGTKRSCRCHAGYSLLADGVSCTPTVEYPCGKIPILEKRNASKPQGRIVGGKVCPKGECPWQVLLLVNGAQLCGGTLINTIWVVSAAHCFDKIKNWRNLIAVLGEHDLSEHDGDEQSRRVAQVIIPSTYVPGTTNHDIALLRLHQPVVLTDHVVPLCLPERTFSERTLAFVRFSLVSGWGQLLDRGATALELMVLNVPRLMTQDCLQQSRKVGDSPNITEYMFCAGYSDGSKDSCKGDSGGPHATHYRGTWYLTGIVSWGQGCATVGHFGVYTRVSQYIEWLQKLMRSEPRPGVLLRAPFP

[3] = target: T3, FVII(a) variant V252A (human, UniProt P08709 61-466)
T3 construct: hFVII alanine variant in cell culture supernatant
T3 sequence: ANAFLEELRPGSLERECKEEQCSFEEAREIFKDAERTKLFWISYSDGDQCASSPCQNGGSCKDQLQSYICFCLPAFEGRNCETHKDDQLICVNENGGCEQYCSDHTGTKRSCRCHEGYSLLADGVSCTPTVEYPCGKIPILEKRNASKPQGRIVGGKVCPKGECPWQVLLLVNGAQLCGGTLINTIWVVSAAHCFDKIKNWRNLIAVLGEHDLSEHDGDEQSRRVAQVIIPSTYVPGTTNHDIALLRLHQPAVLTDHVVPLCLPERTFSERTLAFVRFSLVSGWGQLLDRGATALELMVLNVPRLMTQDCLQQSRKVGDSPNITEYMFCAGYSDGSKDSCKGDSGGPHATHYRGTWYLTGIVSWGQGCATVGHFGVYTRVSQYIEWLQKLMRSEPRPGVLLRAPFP

[4] = target: T4, FVII(a) variant I186A (human, UniProt P08709 61-466)
T4 construct: hFVII alanine variant in cell culture supernatant
T4 sequence: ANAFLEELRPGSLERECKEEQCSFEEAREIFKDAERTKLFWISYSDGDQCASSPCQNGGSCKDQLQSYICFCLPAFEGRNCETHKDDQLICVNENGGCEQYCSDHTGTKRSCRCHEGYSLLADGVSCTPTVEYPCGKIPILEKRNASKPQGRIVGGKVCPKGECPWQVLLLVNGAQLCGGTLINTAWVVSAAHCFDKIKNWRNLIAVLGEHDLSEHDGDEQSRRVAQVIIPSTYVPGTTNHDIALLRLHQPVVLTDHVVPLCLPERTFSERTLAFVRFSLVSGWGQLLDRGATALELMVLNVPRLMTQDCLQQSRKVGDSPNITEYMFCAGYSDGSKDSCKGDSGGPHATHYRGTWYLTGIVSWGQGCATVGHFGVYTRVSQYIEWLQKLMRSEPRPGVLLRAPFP

[5] = target: T5, FVII(a) variant T130A (human, UniProt P08709 61-466)
T5 construct: hFVII alanine variant in cell culture supernatant
T5 sequence: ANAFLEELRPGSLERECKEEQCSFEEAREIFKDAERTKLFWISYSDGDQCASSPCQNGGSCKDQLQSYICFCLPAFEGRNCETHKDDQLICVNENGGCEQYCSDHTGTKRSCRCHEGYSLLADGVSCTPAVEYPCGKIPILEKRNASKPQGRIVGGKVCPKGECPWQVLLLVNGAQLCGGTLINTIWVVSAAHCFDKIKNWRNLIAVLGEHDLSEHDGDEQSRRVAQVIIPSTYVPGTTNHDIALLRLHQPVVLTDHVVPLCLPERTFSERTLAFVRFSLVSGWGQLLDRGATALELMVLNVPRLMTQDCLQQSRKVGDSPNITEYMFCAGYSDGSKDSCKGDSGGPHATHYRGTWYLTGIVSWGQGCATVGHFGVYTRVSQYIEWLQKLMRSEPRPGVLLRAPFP

B1: mAb0842(OA) (antibody, human IgG4 S228P, kappa)
heavy: QVQLQESGPGLVKPSQTLSLTCTVSGYSISSDSAWSWIRQPPGKGLEWIGYIQYSGSTNYNPSLKSRVTISRDTSKNQFSLKLSSVTAADTAVYYCARSVNYYGNSFAVGYWGQGTLVTVSSASTKGPSVFPLAPCSRSTSESTAALGCLVKDYFPEPVTVSWNSGALTSGVHTFPAVLQSSGLYSLSSVVTVPSSSLGTKTYTCNVDHKPSNTKVDKRVESKYGPPCPPCPAPEFLGGPSVFLFPPKPKDTLMISRTPEVTCVVVDVSQEDPEVQFNWYVDGVEVHNAKTKPREEQFNSTYRVVSVLTVLHQDWLNGKEYKCKVSNKGLPSSIEKTISKAKGQPREPQVYTLPPSQEEMTKNQVSLSCAVKGFYPSDIAVEWESNGQPENNYKTTPPVLDSDGSFFLVSRLTVDKSRWQEGNVFSCSVMHEALHNHYTQKSLSLSLGK
light: EIVLTQSPATLSLSPGERATLSCRASQGISDYLHWYQQKPGEAPRLLIKYTSQPATGIPARFSGSGSGTDFTLTISSLEPEDFAVYYCQNGHSFPLTFGQGTKLEIKRTVAAPSVFIFPPSDEQLKSGTASVVCLLNNFYPREAKVQWKVDNALQSGNSQESVTEQDSKDSTYSLSSTLTLSKADYEKHKVYACEVTHQGLSSPVTKSFNRGEC
chain: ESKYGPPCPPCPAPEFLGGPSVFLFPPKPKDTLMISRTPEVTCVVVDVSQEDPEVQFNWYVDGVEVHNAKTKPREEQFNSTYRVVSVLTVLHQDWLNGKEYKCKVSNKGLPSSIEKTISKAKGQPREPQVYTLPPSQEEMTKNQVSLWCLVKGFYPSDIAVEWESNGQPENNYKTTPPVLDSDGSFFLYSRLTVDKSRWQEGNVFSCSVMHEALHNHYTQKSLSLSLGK
notes: also called monovalent humanized 11F2 antibody; one-armed anti-FVII(a) antibody
[1]
  Kd: 43.4 nM
[2]
  Kd: 0.5 nM
[3]
  Kd: 0.28 nM
[4]
  Kd: 0.39 nM
[5]
  Kd: 32.1 nM
